In doi:10.1101/730739:

Legend:
[1] = molecular target: caprine transferrin (goat); assay: ELISA
[2] = molecular target: ovine transferrin (sheep); assay: ELISA
[3] = molecular target: BAP-tagged Histophilus somni Transferrin binding protein B (aa 21-643) (Histophilus somni strain H191); assay: BLI

Row | Substance | absorbance signal relative to that with bovine transferrin [1] [fold] | absorbance signal relative to that with bovine transferrin [2] [fold] | fold lower affinity than for bovine transferrin [3] [fold]
1 | Histophilus somni Transferrin binding protein A 2 (receptor) | 0.25 | 0.25 | 
2 | caprine transferrin (ligand) |  |  | 15.7
3 | ovine transferrin (ligand) |  |  | 3
